According to publication PMC4566977, “Identification and characterization of Arabidopsis AtNUDX9 as a GDP-d-mannose pyrophosphohydrolase: its involvement in root growth inhibition in response to ammonium” (Journal of Experimental Botany, 2015):

Substrate: Nc1nc2c(ncn2[C@@H]2O[C@H](COP(=O)(O)OP(=O)(O)O[C@H]3O[C@H](CO)[C@@H](O)[C@H](O)[C@@H]3O)[C@@H](O)[C@H]2O)c(=O)[nH]1
Assay: purified protein
Type: biochemical, Arabidopsis thaliana
Conditions: 50 mM Tris-HCl pH 8.0, 5 mM MgCl2, 37 °C, 10 min, GDP-D-Man 50 μM to 2 mM, apparent Km

B1: AtNUDX9 (Arabidopsis thaliana) (protein)
chain: MAKLAEEMNPEGSRYQLLLSCPSGLSPSQVSVDFSKSHDRIPRQDPGLEDSISQVWEQRSQGNSSLFNGQKFRYGGYCLDDDDGSTNEVPHVCLRLGLTDYRTFVGTNLSSLWEKFLVTSEDDSVRCRHTSSPLGNGAVIETSDKKIIVLRRSNNVGEFPGHYVFPGGHPEPTAVGIDYHQLENNVQTGEVLNKKVTQEMFDSIICEVVEETGIPASSLSSPLFIGISRRELNVRPAMFFYLKCSHHSDDIQRLYSSAEDGFESTQLHTVSLDELKMMTSRMPGCHHGGFALYELMLQRLKNTKETSLIAT
notes: recombinant with hexahistidine tag (pCold II), expressed in E. coli BL21(DE3) pLysS, His Trap HP purified
Km: 376 ± 24 µM
Vmax: 1.61 µmol/min/mg
kcat: 0.93 ± 1.5 s⁻¹
kcat/Km: 2400 M⁻¹ s⁻¹
